# Results from patent publication US11629364B2, “Methods for synthesizing anticoagulant polysaccharides” (OPTIMVIA, LLC, priority 2019, dated 2023).
# Assay: 3OST activity: 3-O sulfated products detected by LCMS after lyase digestion
# Format: biochemical
# Conditions: PNS as aryl sulfate compound
# Experimental: A study was conducted in accordance with embodiments of the present disclosure to confirm 3OST activity of enzymes comprising the amino acid sequence of SEQ ID NO: 24, SEQ ID NO: 26, or SEQ ID NO: 28 by detecting the presence of 3-O sulfated polysaccharide products as a result of their sulfotransfer reaction, using a reaction, using a similar LCMS procedure as in Example 3, except that the sulfo acceptor polysaccharide was commercially-available heparin (CAS code: 9041-08-1, available from Millipore Sigma). Even though the unmodified heparin contains ˜3.5% (w/w) of 3-O sulfated glucosamine residues, about ˜60% of the glucosamine residues are N,6-sulfated and are adjacent to a 2-O sulfated hexuronic acid residue, as in Formula X. Consequently, these N,6-sulfated glucosamine residues can still be 3-O sulfated.
row,Molecule,3OST activity with PNS
1,"SEQ ID NO: 28: engineered aryl sulfate-dependent 3OST enzyme, mutant of isoform 1 of the human 3OST enzyme (protein, Amino acid sequence encoding for engineered arylsulfate-dependent 3-O-sulfotransferase variant 3, engineered aryl sulfate-dependent 3OST enzyme, mutant of isoform 1 of the human 3OST enzyme) MGTASNGSTQQLPQTIIIGVGHGGTRALLEMLSLHPDVAAAENEVHFFDWEEHYSQGLGWYLTQMPFSSPHQLTVEKTHSYFTSPKVPERIHSMNPTIRLLLILRDPSERVLSLGTHLLYVHLQKHKPYPPIEDLLMRDGRLNLDYTGLNRSLYHAHMLNWLRFFPLGHIHIVDGDRLIRDPFPEIQKVERFLKLSPQINASNFYFNKTKGFYCLRDSGKDRCLHESKGRAHPQVDPKLLDKLHEYFHEPNKKFFKLVGRTFDWH",not active

# Same assay, conditions: procedures of Example 5 and/or Example 6; expected
row,Molecule,"3OST activity: N,2,3,6-HS products by MS and/or NMR"
1,"SEQ ID NO: 52: mutant of isoform 1 of the pig 3OST enzyme, SEQ ID NO: 24 mutations (protein, Amino acid sequence encoding for engineered arylsulfate-dependent 3-O-sulfotransferase variant 5) MGVAPNGSAQQLPQTIIIGVGHGGTRALLEMLSLHPDVAAAENEVHFFDWEEHYSHGLGWYLSQMPFSWPHQLTVEKTHSYFTSPKVPERVYSMNPSIRLLLILRDPSERVLSLGTHLFYVHMQKHKPYPSIEEFLVRDGRLNVDYTGLNRSLYHVHMQNWLRFFPLRHIHIVDGDRLIRDPFPEIQKVERFLKLSPQINASNFYFNKTKGFYCLRDSGRDRCLHESKGRAHPQVDPKLLNKLHEYFHEPNKKFFELVGRTFDWH","confirm the presence of N,2,3,6-HS products"
2,"SEQ ID NO: 53: mutant of isoform 1 of the pig 3OST enzyme, SEQ ID NO: 26 mutations (protein, Amino acid sequence encoding for engineered arylsulfate-dependent 3-O-sulfotransferase variant 6) MGVAPNGSAQQLPQTIIIGVGHGGTRALLEMLSLHPDVAAAENEVHFFDWEEHYSHGLGWYLSQMPFSWPHQLTVEKTHSYFTSPKVPERVYSMNPSIRLLLILRDPSERVLSAYTHMFYNHMQKHKPYPSIEEFLVRDGRLNVDYTGLNRSLYHVHMQNWLRFFPLRHIHIVDGDRLIRDPFPEIQKVERFLKLSPQINASNFYFNKTKGFYCLRDSGRDRCLHESKGRAHPQVDPKLLNKLHEYFHEPNKKFFELVGRTFDWH","confirm the presence of N,2,3,6-HS products"
3,"SEQ ID NO: 54: mutant of isoform 1 of the pig 3OST enzyme, SEQ ID NO: 28 mutations (protein, Amino acid sequence encoding for engineered arylsulfate-dependent 3-O-sulfotransferase variant 7) MGVAPNGSAQQLPQTIIIGVGHGGTRALLEMLSLHPDVAAAENEVHFFDWEEHYSHGLGWYLSQMPFSWPHQLTVEKTHSYFTSPKVPERVYSMNPSIRLLLILRDPSERVLSLGTHLFYVHMQKHKPYPSIEEFLVRDGRLNVDYTGLNRSLYHVHMQNWLRFFPLRHIHIVDGDRLIRDPFPEIQKVERFLKLSPQINASNFYFNKTKGFYCLRDSGRDRCLHESKGRAHPQVDPKLLNKLHEYFHEPNKKFFELVGRTFDWH","confirm the presence of N,2,3,6-HS products"
4,"SEQ ID NO: 56: full-length mutant of isoform 5 of the mouse 3OST enzyme, SEQ ID NO: 24 mutations (protein, Amino acid sequence encoding for engineered arylsulfate-dependent 3-O-sulfotransferase variant 8) MLFKQQVWLRQKLLVLGSLAVGSLLYLVARVGSLDRLQPICPVESRFGGAHNQAELPLRALQFKRGLLHEFRKGNSSKEQVHLHDLVQQLPKAIIIGVGHGGTRALLEMLNLHPAVVKASQEIHFFDNDENYAKGIEWYRKKMPFSYPQQITIEKSHSYFITEEVPERIYKMNSSIKLLIIVREPTTRAISAYTHMLEGKERKNKTYYKFEKLAIDPNTCEVNTKYVGVRTSIYTKHLERWLKYFPIEQFHIVDGDRLITEPLPELQLVEKFLNLPPRISQYNLYFNATRGFYCLRFNIIFNKCLAGSKGRIHPEVDPSVITKLRKFFHPFNQKFYQITGRTLNWP","confirm the presence of N,2,3,6-HS products"
5,"SEQ ID NO: 57: full-length mutant of isoform 5 of the mouse 3OST enzyme, SEQ ID NO: 26 mutations (protein, Amino acid sequence encoding for engineered arylsulfate-dependent 3-O-sulfotransferase variant 9) MLFKQQVWLRQKLLVLGSLAVGSLLYLVARVGSLDRLQPICPVESRFGGAHNQAELPLRALQFKRGLLHEFRKGNSSKEQVHLHDLVQQLPKAIIIGVGHGGTRALLEMLNLHPAVVKASQEIHFFDNDENYAKGIEWYRKKMPFSYPQQITIEKSHSYFITEEVPERIYKMNSSIKLLIIVREPTTRAISAYTHMLEGKERKNKTYYKFEKLAIDPNTCEVNTKYTGVRTSIYTKHLERWLKYFPIEQFHIVDGDRLITEPLPELQLVEKFLNLPPRISQYNLYFNATRGFYCLRFNIIFNKCLAGSKGRIHPEVDPSVITKLRKFFHPFNQKFYQITGRTLNWP","confirm the presence of N,2,3,6-HS products"
6,"SEQ ID NO: 58: full-length mutant of isoform 5 of the mouse 3OST enzyme, SEQ ID NO: 28 mutations (protein, Amino acid sequence encoding for engineered arylsulfate-dependent 3-O-sulfotransferase variant 10) MLFKQQVWLRQKLLVLGSLAVGSLLYLVARVGSLDRLQPICPVESRFGGAHNQAELPLRALQFKRGLLHEFRKGNSSKEQVHLHDLVQQLPKAIIIGVGHGGTRALLEMLNLHPAVVKASQEIHFFDNDENYAKGIEWYRKKMPFSYPQQITIEKSHSYFITEEVPERIYKMNSSIKLLIIVREPTTRAISLGTHLLEVKERKNKTYYKFEKLAIDPNTCEVNTKYTGVRTSIYTKHLERWLKYFPIEQFHIVDGDRLITEPLPELQLVEKFLNLPPRISQYNLYFNATRGFYCLRFNIIFNKCLAGSKGRIHPEVDPSVITKLRKFFHPFNQKFYQITGRTLNWP","confirm the presence of N,2,3,6-HS products"

# Same assay, conditions: relative to the commercial heparin standard
row,Molecule,abundance of 3-O sulfation in product
1,"SEQ ID NO: 28: engineered aryl sulfate-dependent 3OST enzyme, mutant of isoform 1 of the human 3OST enzyme (protein, Amino acid sequence encoding for engineered arylsulfate-dependent 3-O-sulfotransferase variant 3, engineered aryl sulfate-dependent 3OST enzyme, mutant of isoform 1 of the human 3OST enzyme) MGTASNGSTQQLPQTIIIGVGHGGTRALLEMLSLHPDVAAAENEVHFFDWEEHYSQGLGWYLTQMPFSSPHQLTVEKTHSYFTSPKVPERIHSMNPTIRLLLILRDPSERVLSLGTHLLYVHLQKHKPYPPIEDLLMRDGRLNLDYTGLNRSLYHAHMLNWLRFFPLGHIHIVDGDRLIRDPFPEIQKVERFLKLSPQINASNFYFNKTKGFYCLRDSGKDRCLHESKGRAHPQVDPKLLDKLHEYFHEPNKKFFKLVGRTFDWH",higher abundance of 3-O sulfation
2,"SEQ ID NO: 24: engineered aryl sulfate-dependent 3OST enzyme, mutant of isoform 1 of the human 3OST enzyme (protein, Amino acid sequence encoding for engineered arylsulfate-dependent 3-O-sulfotransferase variant 1, engineered aryl sulfate-dependent 3OST enzyme, mutant of isoform 1 of the human 3OST enzyme) MGTASNGSTQQLPQTIIIGVGHGGTRALLEMLSLHPDVAAAENEVHFFDWEEHYSQGLGWYLTQMPFSSPHQLTVEKTHSYFTSPKVPERIHSMNPTIRLLLILRDPSERVLSAYTHMLYNHLQKHKPYPPIEDLLMRDGRLNLDYVGLNRSLYHAHMLNWLRFFPLGHIHIVDGDRLIRDPFPEIQKVERFLKLSPQINASNFYFNKTKGFYCLRDSGKDRCLHESKGRAHPQVDPKLLDKLHEYFHEPNKKFFKLVGRTFDWH",higher abundance of 3-O sulfation
